Test in all cases: BLI
(In general: BLI is a label-free optical method that tracks binding on a fibre tip over time.)

For experiment [1], the target named is C-terminally biotinylated FcγRIIIa made from FcγRIIIa-ST-H6 by sortase-mediated ligation (human) (UniProt P08637).
In experiment [2] the target is GlcNAc-IgG1 Fc glycoform (GlcNAc-Fc) (human).
Experiment [3] deals with Man5-IgG1 Fc glycoform (Man5-Fc) (human).
In experiment [4] the target is High mannose IgG1 Fc (HM-Fc), di-glycosylated form (human).

For orientation: Kd means a measure of binding affinity in units of concentration. A high value points to lower affinity. What is called koff is a measure of how fast the partners let go of each other. Read a low koff as slow dissociation. Consider “High mannose IgG1 Fc (HM-Fc), di-glycosylated form (domain or fragment)”, for which, in experiment [1], the Kd came out at 26.4 nM and the off-rate constant (koff) stood at 0.0079 s⁻¹.

In experiment [1], “GlcNAc-IgG1 Fc glycoform (GlcNAc-Fc) (domain or fragment)” showed a Kd of 995 nM and a koff of 0.161 s⁻¹.

In turn, “Man5-IgG1 Fc glycoform (Man5-Fc) (domain or fragment)” returned a Kd in experiment [1] of 32.8 nM.

For orientation: kon means the rate constant with which the complex forms. Low readings indicate slow association, high ones fast association. As for “soluble domain of FcγRIIIa with a C-terminal histidine tag (FcγRIIIa-H6) (receptor)”, in experiment [2], the dissociation constant (Kd) was 1120 nM, the koff was 0.14 s⁻¹ and the kon came to 120000 M⁻¹ s⁻¹. Further, in experiment [3], the dissociation constant Kd stood at 31.8 nM, the off-rate (koff) came out at 0.0051 s⁻¹ and the on-rate (kon) is 160000 M⁻¹ s⁻¹. In experiment [4], this substance yielded a Kd of 27.7 nM, a koff of 0.0054 s⁻¹ and a kon of 190000 M⁻¹ s⁻¹.

The values are drawn from article PMC4752726.
